According to patent US20120283136A1, “COMPOSITIONS AND METHODS FOR THE RAPID BIOSYNTHESIS AND IN VIVO SCREENING OF BIOLOGICALLY RELEVANT PEPTIDES” (THE UNIVERSITY OF SOUTHERN CALIFORNIA, priority 2009, published 2012):
“Also recorded” adds a separate entry of the source. Where no end group is shown, it is not given here.

Columns and labels:
[1] = molecular target: LF protease (Bacillus anthracis, UniProt P15917); format: biochemical, B. anthracis strain Sterne
[2] = Saether et al. (1995); cited from earlier work
[3] = molecular target: trypsin; settings: read-out: Ki (affinity for trypsin); cited from earlier work
[4] = molecular target: trypsin (Sus scrofa, UniProt P00761); assay: Competing trypsin-binding experiments (sequential extraction with limiting trypsin-sepharose); settings: in vitro and in vivo cyclized libraries, trypsin-sepharose under competing conditions (about 20% of beads required for stoichiometric binding), MCoTI-I wt as internal reference
Chain of trypsin (Sus scrofa, UniProt P00761) (P00761 9-231): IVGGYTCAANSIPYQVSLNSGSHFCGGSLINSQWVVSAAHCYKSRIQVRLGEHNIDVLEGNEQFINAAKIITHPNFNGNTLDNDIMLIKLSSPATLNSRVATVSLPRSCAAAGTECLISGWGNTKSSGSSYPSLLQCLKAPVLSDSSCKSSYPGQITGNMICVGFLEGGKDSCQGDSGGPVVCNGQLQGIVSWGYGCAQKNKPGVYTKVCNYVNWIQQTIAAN

With “H-RRKKVYPYPMEGTIA-NH2 [consensus LF substrate peptide made by Fmoc solid-phase synthesis]” the “time for cleavage of the P1-P1′ peptide bond by LF” value [1] was “less than 15 minutes”.

In the case of “Kalata B1 (cyclo(GLPVCGETCVGGTCNTPGCTCSWPVCTRN); ends not checked; also: three disulfide bonds (cystine knot), pairing not given here; UniProt P56254 89-117, looked up) [first cyclotide to be discovered, from Oldenlandia affinis]”, the oral bioavailability [2] is given as “orally bioavailable”.

In the case of “MCoTI-II (cyclo(SGSDGGVCPKILKKCRRDSDCPGACICRGNGYCG); ends not checked; also: three disulfide bonds (cystine knot), pairing not given here; UniProt P82409 1-34, looked up)”, the Ki [3] is given as roughly 2 pM.

In the case of “Q7G (CGSGSDGGVCPKILGRCRRDSDCPGACICRGNGY; not fully specified (bridges); ends and bridges not checked)”, the “relative affinity for trypsin versus MCoTI-I wt (elution profile)” value [4] is reported as “lower affinity; also recorded: weaker affinity”.
